This note sets out measurements from article PMC9440017, “Structural basis for Gemin5 decamer-mediated mRNA binding” (Nature Communications, 2022).

Substitutions are numbered along the chain they refer to. In names and notes the source's numbering stands. Several values for one entry are separate records, joined by “and”; a condition that tells them apart may be missing. Equal entries are not always repeated.

The test system of one data set is G5C A951E (Homo sapiens). Nature of the data set: fluorescence polarization. The following applies: EMSA: 20 mM Tris-HCl pH 7.5, 100 mM NaCl, 1 h on ice, 0.35 uM RNA; FP: 20 mM Tris-HCl pH 7.5, 150 mM NaCl, 10 nM RNA (40 nM U7), protein 0-41 uM, temperature …. On the technique in general: In fluorescence polarisation assays a small probe gives low polarisation when free and higher when bound to something large.

The next data set has as its system G5C M4 (Homo sapiens). Briefly: fluorescence polarization. The following applies: EMSA: 20 mM Tris-HCl pH 7.5, 100 mM NaCl, 1 h on ice, 0.35 uM RNA; FP: 20 mM Tris-HCl pH 7.5, 150 mM NaCl, 10 nM RNA (40 nM U7), protein 0-41 uM, temperature ….
In data set [1] the target is G5C (Gemin5 841-1508) wild type (Homo sapiens) (UniProt Q8TEQ6). Nature of the data set: fluorescence polarization. The note with it: EMSA: 20 mM Tris-HCl pH 7.5, 100 mM NaCl, 1 h on ice, 0.35 uM RNA; FP: 20 mM Tris-HCl pH 7.5, 150 mM NaCl, 10 nM RNA (40 nM U7), protein 0-41 uM, temperature ….
Data set [2] deals with the molecule itself. Nature of the data set: SEC; size-exclusion chromatography of purified G5C wild type and mutants against a molecular weight marker; self-association. For orientation: SEC sorts molecules by how far they enter the pores of the column.
Data set [3] concerns the molecule itself. Nature of the data set: SEC-MALS; Superose 6 Increase 10/300 GL coupled to DAWN HELEOS 8+; 100 ul at 1 mg/ml; 20 mM Tris-HCl pH 7.5, 330 mM NaCl; self-association.

The term Kd denotes a measure of binding affinity in units of concentration. A lower Kd goes with tighter binding. In the case of SL1 RNA, FAM (FP), the values for the Kd (with G5C A951E (Homo sapiens); in the data set with G5C M4 (Homo sapiens); in data set [1]) were 32 µM, 138 µM and 6.5 µM, respectively.

B1: G5C K1363A/K1436A/R1437A/R1444A/K1492A mutant (domain or fragment, human, UniProt Q8TEQ6 841-1508, looked up)
chain: KKRKARSLLPLSTSLDHRSKEELHQDCLVLATAKHSRELNEDVSADVEERFHLGLFTDRATLYRMIDIEGKGHLENGHPELFHQLMLWKGDLKGVLQTAAERGELTDNLVAMAPAAGYHVWLWAVEAFAKQLCFQDQYVKAASHLLSIHKVYEAVELLKSNHFYREAIAIAKARLRPEDPVLKDLYLSWGTVLERDGHYAVAAKCYLGATCAYDAAKVLAKKGDAASLRTAAELAAIVGEDELSASLALRCAQELLLANNWVGAQEALQLHESLQGQRLVFCLLELLSRHLEEKQLSEGKSSSSYHTWNTGTEGPFVERVTAVWKSIFSLDTPEQYQEAFQKLQNIKYPSATNNTPAKQLLLHICHDLTLAVLSQQMASWDEAVQALLRAVVRSYDSGSFTIMQEVYSAFLPDGCDHLRDKLGDHQSPATPAFKSLEAFFLYGRLYEFWWSLSRPCPNSSVWVRAGHRTLSVEPSQQLDTASTEETDPETSQPEPNRPSELDLRLTEEGERMLSTFKELFSEAHASLQNSQRTVAEVQETLAEMIRQHQKSQLCKSTANGPDKNEPEVEAEQPLCSSQSQCKEEKNEPLSLPELTAALTEANQAMAKFPESIKAWPFPDVLECCLVLLLIRSHFPGCLAQEMQQQAQELLQAYGNTKTYRRHCQTFCM
notes: Gemin5, human, residues 841-1508 with K1363A, K1436A, R1437A, R1444A and K1492A; also called M5; source: E. coli BL21 (DE3), purified in the same way as wild-type G5C; not shown: His6, N-terminal, cleaved; copies: 10
By stoichiometry N is commonly meant a count of units in the complex or per binding partner. Regarding B1, in data set [2], the “stoichiometry N” value turned out to be 10.

B2: G5C L1468D/L1469D double mutant (domain or fragment, human, UniProt Q8TEQ6 841-1508, looked up)
chain: B1 chain with A523K, A596K, A597R, A604R, L628D, L629D, A652K
notes: Gemin5, human, residues 841-1508 with L1468D and L1469D; also called M1; source: E. coli BL21 (DE3), purified in the same way as wild-type G5C; not shown: His6, N-terminal, cleaved
In the case of B2, the “stoichiometry N” value in data set [2] is 2 and 4.

B3: G5C L1469H single mutant (domain or fragment, human, UniProt Q8TEQ6 841-1508, looked up)
chain: B1 chain with A523K, A596K, A597R, A604R, L629H, A652K
notes: Gemin5, human, residues 841-1508 with L1469H; also called M3; source: E. coli BL21 (DE3), purified in the same way as wild-type G5C; not shown: His6, N-terminal, cleaved; copies: 10
In the case of B3, the “stoichiometry N” value in data set [2] stood at 10.

B4: G5C R1035A/K1061A/K1062A/R1090A quadruple mutant (domain or fragment, human, UniProt Q8TEQ6 841-1508, looked up)
chain: B1 chain with R195A, K221A, K222A, R250A, A523K, A596K, A597R, A604R, A652K
notes: Gemin5, human, residues 841-1508 with R1035A, K1061A, K1062A and R1090A; also called M4; source: E. coli BL21 (DE3), purified in the same way as wild-type G5C; not shown: His6, N-terminal, cleaved; copies: 10
Turning to B4, the “stoichiometry N” value in data set [2] stood at 10.

B5: Gemin5 C-terminal fragment (Gemin5 841-1508), wild type (domain or fragment, human, UniProt Q8TEQ6 841-1508, looked up)
chain: B1 chain with A523K, A596K, A597R, A604R, A652K
notes: Gemin5, human, residues 841-1508 of the 1508-residue protein; Homodecamer (dimer of pentamers) by cryo-EM and static light scattering; also called G5C; G5C wild type; source: E. coli BL21 (DE3), purified (Ni-NTA, TEV cleavage, Superdex 200 gel filtration, mono Q); not shown: His6, N-terminal, cleaved; copies: 10
Take B5: the “stoichiometry N” value in data set [3] amounted to 10.

B6: G5C L1381D/M1384D/I1385D triple mutant (domain or fragment, human, UniProt Q8TEQ6 841-1508, looked up)
chain: B1 chain with A523K, L541D, M544D, I545D, A596K, A597R, A604R, A652K
notes: Gemin5, human, residues 841-1508 with L1381D, M1384D and I1385D; also called M2; source: E. coli BL21 (DE3), purified in the same way as wild-type G5C; not shown: His6, N-terminal, cleaved
Turning to B6, the “stoichiometry N” value in data set [2] is 2 and 4.
